In publication PMC8881573, “Inhibition of SRP-dependent protein secretion by the bacterial alarmone (p)ppGpp” (Nature Communications, 2022):

Experiments:
[1] = target: (Bs)MifM-stalled RNC (B. subtilis | B. subtilis (endogenous in the B. subtilis 168 extract)) (UniProt Q7WY64); assay: cryo-EM structure; (Bs)SRP pre-incubated with GMPPNP, tenfold molar excess over MifM-stalled RNCs, 10 min at room temperature
[2] = target: (Bs)MifM-stalled RNC (B. subtilis | B. subtilis (endogenous in the B. subtilis 168 extract)) (UniProt Q7WY64); assay: cryo-EM structure; (Bs)SRP pre-incubated with pppGpp, tenfold molar excess over MifM-stalled RNCs, 10 min at room temperature

In the case of “recombinant (Bs)SRP (Ffh and 6S RNA) (from UniProt P37105 1-446) (natural protein)”, the percent of the particles with stably bound SRP (% of the particles) [1] is reported as 24 and the percent of the particles with stably bound SRP (% of the particles) [2] is reported as 38.
